Data published in patent publication US20200115452A1 (Dana-Farber, published 2020).
One block for each binder: values may come before it. Where no end group is shown, it is not given here.

What was measured:
[1] = molecular target: T1, unphosphorylated peptide (unphosphorylated form of the PD-1 p248Tyr peptide) (human, not fully specified); test: ELISA, hybridoma screen
T1 peptide: VPEQTEYATIVF
From the text: (§1) Hybridoma wells were screened by western blot on pervanadate treated Jurkat-hPD-1 lysates and by ELISA on PD-1 p248Tyr peptide conjugated to BSA and lack of reactivity to unphosphorylated peptide or BSA.

BSA = molecular target: T2, BSA (UniProt P02769 25-607); test: ELISA, hybridoma screen
T2 construct: Carrier control in the hybridoma ELISA screen; also called carrier
T2 sequence (P02769 25-607 limits assumed): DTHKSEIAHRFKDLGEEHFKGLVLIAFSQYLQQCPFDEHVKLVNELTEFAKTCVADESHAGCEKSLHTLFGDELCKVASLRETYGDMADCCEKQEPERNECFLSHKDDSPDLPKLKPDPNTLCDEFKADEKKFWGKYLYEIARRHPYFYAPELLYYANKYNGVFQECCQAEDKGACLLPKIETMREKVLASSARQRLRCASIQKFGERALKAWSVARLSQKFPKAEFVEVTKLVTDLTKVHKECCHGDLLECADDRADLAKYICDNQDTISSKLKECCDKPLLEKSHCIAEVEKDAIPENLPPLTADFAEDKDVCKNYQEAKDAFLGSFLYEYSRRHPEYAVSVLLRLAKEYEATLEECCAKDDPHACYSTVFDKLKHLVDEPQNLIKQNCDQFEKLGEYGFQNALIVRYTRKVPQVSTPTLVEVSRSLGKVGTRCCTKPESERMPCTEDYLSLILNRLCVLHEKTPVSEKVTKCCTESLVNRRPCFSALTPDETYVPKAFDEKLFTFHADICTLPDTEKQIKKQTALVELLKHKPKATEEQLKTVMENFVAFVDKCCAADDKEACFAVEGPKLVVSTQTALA
From the text: as §1

[2] = molecular target: T3, PD-1 pITIM peptide KEDPSAVPVFSVD(pY)GELDFQWRE (phosphotyrosine (pY) at peptide residue 14 (PD-1 ITIM tyrosine)); test: peptide ELISA with antibody supernatants
T3 construct: Coated on ELISA plates at 1 µg/ml; also called negative control pITIM peptide
T3 peptide: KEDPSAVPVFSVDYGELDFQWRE

binding result [1]: no binding | binding result (BSA): no binding
B1: anti-phosphorylated PD-1 monoclonal antibody 407.6G12 (antibody, mouse IgG2a, V domains shown)
VH: EVQLVESGGGLVQPKGSLKLSCAASGFTFNTYAMNWVRQAPGKGLEWVARIRSKSDNYATYYADSVKDRFTISRDDSQSMLYLQMNNLKTEDTAMYYCMRGITTVNVWGAGTTVTVSS
VL: DIVMTQSQKFMSTSVGDRVSVTCKASQNVGTNVAWYQQKPGQSPKALIYSASYRYSGVPDRFTGSGSGTDFTLTISNVHSEDLAEYFCQQYNFYPLTFGAGTKLELK
notes: Mouse IgG2a, kappa; A BV421-conjugated version was used for flow cytometry; also called clone 407.6G12; 307.6G12

binding result [2]: no binding
B2: rabbit mAb 6H2/6K2 (antibody, V domains shown)
VH: CQSVEESGGRLVTPGTPLTLTCTVSGIDLNYYAMGWVRQAPGKGLEYIGWIKSSGSAYYARWVNGRFTISKTSSTTVDLKMTSPTTEDTATYFCARDGHNIIEYYDLWGQGTLVTVSS
VL: AIKMTQTPSSAEAAVGGTITINCQASQSISSSLAWYQQKPGQPPKLLIYKASTLASGVPSRFSGSRSGTQFTLTISGVQCDDAATYYCQQGWSGDNVDNIFGGGTEVVVK
notes: Rabbit monoclonal tested as culture supernatant

binding result [2]: no binding
B3: rabbit mAb 2H2/2K4 (antibody, V domains shown)
VH: QSLEESGGDLVKPGASLTLTCKASGFSFSGSYHMCWVRQAPGKGLEWIAHIYVGSSGGTYYASWAKGRFAISKTSSTTVTLQMTSLTAADTATYFCARRDTGGTSAYALWGQGTLVTVSS
VL: DVVMTQTPSSASEPVGGTVTIKCQASQSVSSRLAWYQQKPGQPPKLLIYKASTLASGVPSRFKGSGYGTEFTLTISDLECADAATYYCQCTYIDSTYGNNFGGGTEVVVK
notes: Rabbit monoclonal tested as culture supernatant, detected with anti-rabbit IgG Fc
